Assay results published in PMC3614016.

How the values were obtained:
[1] = target: PCNA (Homo sapiens) (UniProt P12004); conditions: cited from earlier work
[2] = target: mutant human PCNA (surface-exposed cysteines mutated, N107C), unlabeled (human) (UniProt P12004); assay: stopped-flow FRET between Cy3-P/T DNA and Cy5-PCNA, trapping experiment with polδ; As a2, with polδ at a ratio of 1:1:1 PCNA:Cy5-PCNA:polδ. The substrates were Cy3-P/T DNA, Cy3-P/T DNA-No Flap and Cy3-P/T DNA-25 bp. The read-out is the overall amplitude of reloading over that of unloading (0.5 = all unlabeled PCNA unloaded, 1.0 = all unlabeled PCNA kept on DNA).

Row | A (T,Reload)/A (T,Unload) with polδ (Cy3-P/T DNA) [2] | A (T,Reload)/A (T,Unload) with polδ (Cy3-P/T DNA-25 bp) [2] | A (T,Reload)/A (T,Unload) with polδ (Cy3-P/T DNA-No Flap) [2] | Substance | Kd [1]
1 |  |  |  | RFC (from UniProt P35251) | 200 pM
2 | 1 | 1 | 0.99 | wild-type human DNA polymerase δ (polδ) (complex) | 
